We go through one substance from PMC4794898.

The target of test [1] is PF3D7_0919900 recombinant protein, KSVSF to KSASA (Plasmodium falciparum). The experiment in a line: ELISA; plates coated with 25 pmol/well of each recombinant Pip in PBS overnight at 4 °C; biotin-PfPP1 4 pmol/well in solution.
The target in test [2] is PF3D7_0220000 recombinant protein with a stop in the second position of the KKVRF motif (Plasmodium falciparum). The test is described as above.

Take “biotin labeled PfPP1 (from UniProt Q8ILV1 1-304) (enzyme)”: the decrease of the binding against the wild protein (100 %) came to 70% in test [1] and 86% in test [2].
